According to paper PMC4947154:

Tests used:
[1] = molecular target: CD320 extracellular, TC-binding part (MBP cleaved), as used for biochemical analysis of the complex (human) (UniProt Q9NPF0); assay: cross-linking; purified complex at 10 mg/ml cross-linked with glutaraldehyde, 1 h RT, then high-mass MALDI-TOF mass spectrometry
[2] = molecular target: CD320(Gly4Ser)4 (flexible linker mutant: EGF-like domain replaced by (Gly4Ser)4) (human) (UniProt Q9NPF0); assay: native MS; native ESI-MS of the purified complex and of its individually purified SEC peaks
[3] = molecular target: MBP-tagged, biotinylated CD320ΔE88 (Avi Tag) (human) (UniProt Q9NPF0); assay: ELISA; solid-phase binding assay: biotinylated MBP-tagged receptor on Neutravidin plates, tag-less TC serially diluted in 20 mM Tris pH 7.5, 0.5 mM CaCl2, 150 mM NaCl, 0.05% Tween-20, 1 h RT; TC detected with antibody A-5; single-site fit, n=5
[4] = molecular target: MBP-tagged, biotinylated CD320 (CD320AVI) (human) (UniProt Q9NPF0); assay: as above
[5] = molecular target: MBP-tagged, biotinylated CD320 (CD320AVI) (human) (UniProt Q9NPF0); assay: ELISA; solid-phase binding assay as a2, TC diluted in buffer with 100 mM Tris-HCl pH 7.5, 0.5 mM CaCl2, 150 mM NaCl; n=5
[6] = molecular target: MBP-tagged, biotinylated CD320 (CD320AVI) (human) (UniProt Q9NPF0); assay: ELISA; solid-phase binding assay as a2, TC diluted in buffer with 100 mM sodium acetate pH 4.8, 0.5 mM CaCl2, 150 mM NaCl; n=5
[7] = molecular target: CD320 extracellular, TC-binding part (MBP cleaved), as used for biochemical analysis of the complex (human) (UniProt Q9NPF0); assay: co-expression and co-purification; TC construct and His9-MBP-CD320 construct co-expressed and secreted from Sf21 cells, complex captured from the medium on Ni-NTA through the receptor's tag

Chain of CD320(Gly4Ser)4 (flexible linker mutant: EGF-like domain replaced by (Gly4Ser)4) (human) (Q9NPF0 other isoform, or with tags, fused parts or gaps, stated change not applied): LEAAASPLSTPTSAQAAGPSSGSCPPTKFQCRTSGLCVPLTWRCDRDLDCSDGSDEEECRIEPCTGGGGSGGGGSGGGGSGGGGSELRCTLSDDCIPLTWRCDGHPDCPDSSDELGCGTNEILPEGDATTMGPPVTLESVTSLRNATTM

stoichiometry N [1]	stoichiometry N [2]	Kd [3] [nM]	Kd [4] [nM]	Kd [5] [nM]	Kd [6] [nM]	stoichiometry N [7]	Binder
1 TC:CD320	1 TC:CD320	1.5	1.5	1	58		human transcobalamin (holo-TC, cyanocobalamin-bound) (natural protein) EMCEIPEMDSHLVEKLGQHLLPWMDRLSLEHLNPSIYVGLRLSSLQAGTKEDLYLHSLKLGYQQCLLGSAFSEDDGDCQGKPSMGQLALYLLALRANCEFVRGHKGDRLVSQLKWFLEDEKRAIGHDHKGHPHTSYYQYGLGILALCLHQKRVHDSVVDKLLYAVEPFHQGHHSVDTAAMAGLAFTCLKRSNFNPGRRQRITMAIRTVQEEILKAQTPEGHFGNVYSTPLALQFLMTSPMRGAELGTACLKARVALLASLQDGAFQNALMISQLLPVLNHKTYIDLIFPDCLAPRVMLEPAAETIPQTQEIISVTLQVLSLLPPYRQSISVLAGSTVEDVLKKAHELGGFTYETQASLSGPYLTSVMGKAAGEREFWQLLRDPNTPLLQGIADYRPKDGETIELRLVSW
						1 TCα:CD320	TCα (α domain of human transcobalamin, residues 1-290) (domain or fragment) EMCEIPEMDSHLVEKLGQHLLPWMDRLSLEHLNPSIYVGLRLSSLQAGTKEDLYLHSLKLGYQQCLLGSAFSEDDGDCQGKPSMGQLALYLLALRANCEFVRGHKGDRLVSQLKWFLEDEKRAIGHDHKGHPHTSYYQYGLGILALCLHQKRVHDSVVDKLLYAVEPFHQGHHSVDTAAMAGLAFTCLKRSNFNPGRRQRITMAIRTVQEEILKAQTPEGHFGNVYSTPLALQFLMTSPMRGAELGTACLKARVALLASLQDGAFQNALMISQLLPVLNHKTYIDLIFPD
